Reference: PMC5995969, “Structural basis for the regulation of human 5,10-methylenetetrahydrofolate reductase by phosphorylation and S-adenosylmethionine inhibition” (Nature Communications, 2018)

How the values were obtained:
[1] = system: NC(=O)C1=CN([C@@H]2O[C@H](COP(=O)(O)OP(=O)(O)OC[C@H]3O[C@@H](n4cnc5c(N)ncnc54)[C@H](OP(=O)(O)O)[C@@H]3O)[C@@H](O)[C@H]2O)C=CC1; assay: purified protein; conditions: FAD catalytic domain; binding site shared with CH2-THF, next to FAD; 46.0 °C
[2] = system: Nc1nc2c(c(=O)[nH]1)N1CN(c3ccc(C(=O)N[C@@H](CCC(=O)O)C(=O)O)cc3)CC1CN2; assay: purified protein; conditions: FAD catalytic domain; binding site shared with NAD(P)H, next to FAD; 46.0 °C

5,10-methylenetetrahydrofolate reductase (MTHFR) (Homo sapiens)
Km [1]: 23.5 µM
Km [2]: 22.4 µM
